Measured values as given in paper PMC2115722.

Molecular target: Acanthamoeba actin (Acanthamoeba castellanii)
Test: cross-linking

Acanthamoeba profilin I (natural protein)
stoichiometry N (profilin per actin): 1
